Assay results from the supplement of paper PMC9170038.

Test system: MS2 coat protein
Test: apparent KD of MS2 coat protein; higher = weaker reporter binding
Conditions: Eterna round: R107
Outline: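 Designed RNA switches were transcribed on-chip from Illumina sequencing clusters and titrated with SNAP-549-labelled MS2 coat protein in twofold steps from 0.7 or 1.5 nM up to 3 µM. Each step lasted 0.8–1.5 h at first and 10–20 min by the end, in 100 mM Tris-HCl pH 7.5, 80 mM KCl and 4 mM MgCl2, without or with constant ligand. Apparent KD is the median, for each design, of fits to normalised cluster binding curves.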

[1] = input ligand: theophylline 20 uM
[2] = input ligand: theophylline 2 mM
[3] = input ligand: tryptophan 2.4 mM

Sequence	apparent KD of MS2 coat protein (input ligand: arginine 13.2 mM) [nM]	apparent KD of MS2 coat protein (input ligand: none) [nM]	apparent KD of MS2 coat protein [1] [nM]	apparent KD of MS2 coat protein [2] [nM]	apparent KD of MS2 coat protein [3] [nM]
UAUACAUGAGGAUCACCCAUGUACCAUGAAGGAGCGCAGAAAUCUGCAGGUAGGUCGCAUGGGUUAUGACCUCGGCAUAAUAACG [Enreusus]	40.5	27.8	46.9	39.7	26.2
CCUCAUGUGACGGCCGCCACUGAAGUGAUCGAAACAUGAGGAUCACCCAUGUUACGAUCAGAGAACAGGACCGGGUCAACAUGGG [Try B SS s1]	7.46	9.32	13.6	13.1	9.85
GGCCGUGCGAGCGCUCGCGUGGCCGCGGAUACCAGCGAGGUCCAUCGCCCUUGGCAGCCGAACAUGAGGAUCACCCAUGUCGGUA [#1 Same State - Theophylline A Attempt #14 (HarryS)]	8.93	11	15.2	17.3	9.77
UUUGAGAUAACAGAUACCAGCGUGUUAUAAAACAUGAGGAUCACCCAUGUAGUGAUCAAGCGCCCUUGGCAGCUGGUAUUUUAGG [7.G]	70.3		186		146
UGUAUGUGAUUUGAUACCAGACCAGCUGGUGGUACCUGAGGAUCACCCGGGUAGGUUUGGGUCCCUUGGCAGCAAAUCGCAUACU [SS Theo B #24 Ms8]	48.6	48.6	52.1	31.5	48.6
AUGUUUGUGUGAGAUACCAGUGAGGCCACAUGAGGAUCACCCAUGUCCCUCACUCCGGCCCACCCUUGGCAGCUCUUAUAGAAAA [Exclusion Theophylline B GF 26]	8.81		15.4		9.79
CGAACAAAACUAAAUAAACAACUGGGUGAUACCAGUACAUGUGCGUACCCUUGGCAGCAUCCGGCCACAUGAGGAUCACCCAUGU [Ridiansoer]	35.4		98.8		40.9
AGCCGCGUUCUUUCUUUCUUUCUAGCGGCACGAGGACCGGUACGGCCGCCACUCGAAGACAUGAGGAUCACCCAUGUAGUGGGUA [The Second Ring]	47.4	123	142	109	206
GACUGUAAAAUAUGACUCAGGGUGACGUCCCGAGGACCGGUACGGCCGCCACUCGAGCGAAUACAUGAGGAUCACCCAUGUAGUC [theeternabot_exclusion_MS2_Trp_A_15]	20.5	45.4	61.5	81.2	54.6
UAUCGGAACUGAAGGAGCGAGAUGACAAACAUGAGGAUCACCCAUGUUAUGGGUUGUUAAUCUCAGGUAGGUCGCAGUGGUAGCA [#27 Same State - Arginine B]	52.7	151	138	194	151
GGUUGGUCCUCACAUGAGGAUCACCCAUGUCGAGGACCGGUACGGCCGCCACUCGAUUGUACCAGGGCUUAAGAGCCUAUGAGCA [Erenedquce]	12.6		23.9	17.6	
GUCCUCAUGACGGCCGCCACUAAACAUGAGGAUCACCCAUGUAAUGAUCCAUUAAAUGAUAAUAGUAGGACCGGGUCAAAAUAAA [Same State Typptophan B GF11]	135		833	979	
AUACCUAAUGUUACGUUUUCCUUUUCAGAUACCAGACUUUACGUUGUCCCUUGGCAGCUGUAUUACAUGAGGAUCACCCAUGUUG [JR_SSTheophyA_Sub008]	19.8		26.7		20.4
CAUACUUUAGUAUGUUAUGUGGACAGUGAUACCAGAUACGAAAGUAUCCCUUGGCAGCACAACAUGAGGAUCACCCAUGUAAUUU [Theophylline A 5]	24.4		24.8		28.2
AUGCAGAACACGGCCGCCACUCCAUGUAUACAUGAGGAUCACCCAUGUAAUUUGUAUUUUUUAUAGAGGACCGGGUGAAAUGCAA [JR_SSTryptoB_Sub012]	26.7		38.7	42.9	
ACGAACGAUAGCGAUACCAGACGUACAUGAGGAUCACCCAUGUUUUGGGUAAGGUUAAUAGUCCCUUGGCAGCGCUUUAAGUUCG [#10 Exclusion-TheophyllineB]	50.5		89.7		59
AGAAUACAUGUUUUAAUACGGUUUACUGAUACCAGUGUAUCUAUUCACCCUUGGCAGCAGAGACAUGAGGAUCACCCAUGUAUUA [JR_Nu_ExcTheophyA_Sub022]	25		41.7		46.1
CACGAAAGAUCGGCCGCCACUCAUGUUUCUUACAUGAGGAUCACCCAUGUAUUUUCUUUCUUUUAGAGGACCGGGAUUGAGCGUG [SSTB #1]	117		197	199	
AAUAGUCCUCGACAUGGGUAUCACCCAUGUCGAGGACCGGUACGGCCGCCACUCGACAUGAGGAUCACCCAUGUUGAGUGAUAAA [prototype 1.1]	12.2	9.57	13.7	9.31	9.09

Sequence	apparent KD of MS2 coat protein (input ligand: arginine 13.2 mM) [nM]	apparent KD of MS2 coat protein (input ligand: none) [nM]	apparent KD of MS2 coat protein [1] [nM]	apparent KD of MS2 coat protein [2] [nM]	apparent KD of MS2 coat protein [3] [nM]
AGAUGAGUCACGGCCGCCACUCACUUCAGGUUCACCCUUGGUUAACAUGAGGAUCACCCAUGUGGGAGGACCGGGUGAUGAGCAU [XTryp B #3]	11.8		23.8	25.3	
UGGUACAUGGCGGCCGCCACUGGGUUGAAUACCUGAGGAUCACCCUGGUAAAACGCGAAAGCGACUAGGACCGGGUCAUGUACCU	98.8	148	162	385	44.5
CACAGUGCGAAAUUGAAACCGCACGAUCCUCGAGGACCGGUACGGCCGCCACUCGCGCGGGUCGUACAUGAGGAUCACCCAUGUC [Zaarmaqu]	71.8		351	869	
AAUAUAAGUGUAAUUUUAUGUAUCUCUGAUACCAGACCCUCAUGUGUCCCUUGGCAGCAGUAACAUGAGGAUCACCCAUGUAAAA [JR_Nu_SSTheophyA_Sub023]	30.7		103		86
CUGACGAGCUUUUUGUCAGGUUGUGUAGAUACCAGUUCUCUGGUGAACCCUUGGCAGCUAACAACAUGAGGAUCACCCAUGUGAU [theeternabot_exclusion_MS2_Theo_A_33]	38.5		96.5		69.8
GGUAUGUAUUCGGAAACGAAUGCAUACCAACGAGGACCGGUACGGCCGCCACUCGCGGCUGAUCAACAUGAGGAUCACCCAUGUA [Ex Tryptophan A 4]	19.4	24.8	33	31.5	28.4
UGUGCAGGAUGCGUAAAGGGUCUUGCGCAUCGAGGACCGGUACGGCCGCCACUCGGCUGUACAUGAGGAUCACCCAUGUCAGGGU [#1 Same State - Tryptophan A Attempt #19 (HarryS)]	87.1	477	445	1830	533
ACAUGAGGAUCACCCAUGUAAGUUUCAGAAGGAGCGUGAAUUAUCACAGGUAGGUCGCUGAAGUUUGCAUAUACUUAUAAAUGUA [JR_ExcArginiA_Sub006]	21	22.5	26.6	26.5	19.8
UGGUACUAGGCGGCCGCCACUGGGUGAUACAUGAGGAUCACCCAUGUUUAAUGCCGAGAGGCAACCAGGACCGGGCCUAGUACAU	139	327	366	473	19.5
UAGACGGCCGGAAGGAGCGGUACAUGAGGAUCACCCAUGUACCUCUGGGCAUCCGUAGUGUGCCAGGUAGGUCGCCGGUUGCGGG [Tebecela]	12.6	11.6	12.5	11.4	13.7
GACUAACAUGAGGAUCACCCAUGUGAAGAUACCAGUAAUUUCACCUACCCUUGGCAGCUUUUUUUGAACGGCCUGAAUGCCUUGU [theeternabot_sameState_MS2_Theo_A_14]	12.2		17.5		11.9
AAAGGUAGCAAUAAAUCUCCUACAUGUGAAGGAGCGCCCGAAAGGGCAGGUAGGUCGCACAUGAGGAUCACCCAUGUGAGCUACC [ArgEX 5 #SwitchBubble]	18.9	15.2	20.9	21.2	15.3
AUGCACAUCAGAAGGAGCGUCUUGGCCAAUCUAGGCCAACAUGAGGAUCACCCAUGUGCAGGACAGGUAGGUCGCUGAUGUGUAG [Arg B SS t8]	11.6	12.3	17.8	14.5	12.4
AAGGUGAUCCCAGAUACCAGCUUAACAUGAGGAUCACCCAUGUAACGGACGAAAGUCCGGAGCCCUUGGCAGCUGGGUUGCCAAG [SSTheo B #14]	102	266	305	141	90.9
GUACAUGAGGAUCACCCAUGUAUAGUUGAAGGAGCGACCAGAGGGUCAGGUAGGUCGCAGCACAUGAGGUAAGGCCGUGUAUGCU [#1 Exclusion - Arginine A Attempt #20 (Inspired by Pi)]	17.2	15.2	23.9	21.7	16.8
GGACUAACCAGAAGGAGCGACGCGCAGAAACUGCAAUUUCCUCCACACGAGGAUCACCCGUGUCAGGUAGGUCGCUGGUUAGUCG	15	17.4	18.7	17.6	16.6
GAUCGAAAUAACGCAUAGGAAAACUAUGCGCGAGGACCGGUACGGCCGCCACUCGUCCUCACAUGAGGAUCACCCAUGUACGAUC [#SwitchBubble #CuTurnoff]	23.1		29.1	27.6	
AAUAACAUGAGGAUCACCCAUGUAAAAGAUACCAGAUGCAUGAUGAUCCCUUGGCAGCUUAAACGCGAUUGGAAACAAUCGCGAA [Mat - Same State Theophlline A - Mod of Eli - D11]	37.1		40		38.3
AUAAGCUGUACCGGAAUAUCCUCAUGUAUACGAGGACCGGUACGGCCGCCACUCGAUAACAUGAGGAUCACCCAUGUAAUAAUAA [|T'-M'-Trp-Ms2|_Design20]	14.2		15.4	14.5	
